{"source": "paper PMC12506977", "molecular_target": "Tetrahymena Bld10/CEP135 (Tetrahymena thermophila (endogenous in strain SB715))", "assay": "cryo-EM structure; single-particle analysis of mechanically disrupted (splayed) centrioles isolated from Tetrahymena, 10 mM Hepes pH 7.5; proximal A-C linker (class 1) with adjacent microtubule triplet regions; focused maps 3.6 to 3.8 Å (B-C junction 3.8 and 4.0 Å, A-B junction 5.8 Å); proteins assigned by fitting AlphaFold2 models of MS-detected proteins (COLORES)", "data": [{"substance": "Tetrahymena Bld10/CEP135 (natural protein)", "values": [{"measurement": "stoichiometry N", "value": 2}]}]}
